The nature of this data set: label from the status in PepcDB records.
Consider “MIFLVYDILLLLLSPLILIHHAWRTVSRGRSFAGFGERFGCIAPESLARVAGKGPIWVHAVSVGETMAVKPLLRELKRRFPERPLVLSSVTETGRSVAVTIPEADLVVYFPFDFGFAVARALRLVAPSLVIVVETEIWPNFLRHARRTGIPSVMVNGRISDRSFPRYLRFSRFFAPILNNLSALCMQSSEDARRIIAVGAPAERVHVTRNLKYDLPVRSLTPAERQELLCSYRLPAGALIITAGSTHAGEEEVVADIYARLAGERSDLFLVLVPRHPERAVEVGTLLEGKGIPFVRRSALDKVQEQPRGGVLLVDTIGELMKLYALSDVVFVGGSLVPVGGHNLLEPASVGAPVLFGPHMHNFREITALVLGAGAGEQVNDHGELEATLRRLLADEPARRSMGENGIRLMADQGGAAARHLEIIGPLIERGSEVARLEHHHHHH”, for which the protein production entry is “not failed”.
Regarding “PLQFHSVHGDNIRISRDGTLARRFESFCRAITFSARPVRINERICVKFAEISNNWNGGIRFGFTSNDPVTLEGTLPKYACPDLTNRPGFWAKALHEQYCEKDNILYYYVNGAGDVIYGINNEEKGVILTGIDTRSLLWTVIDIYGNCTGIEFLDSRIYMYQ”, the protein production entry was “not failed”.
For “MGHHHHHHSHPAEYNISPETRRAQAERLAIRAQLKREYLLQYNDPNRRGLIENPALLRWAYARTINVYPNFRPTPKNSLMGALCGFGPLIFIYYIIKTERDRKEKLIQEGKLDRTFHLSY” the value was “failed”; for “MTARDDETIAFYSGHATAYTSRGQAPDRPHLETFLARLRAGAKILELGCGGGQDSEYMLSAGFDVHPTDGTPDIAKAAQARLGIPVRTLLFENIEDAALYDAVWANACLLHVPRLALPGIIGRIHTALKPGGVFYASFKAGEVEGRDTFGRYYNYPSKAWLEETYGQFAWTEVEIEARQGSGYDKLPTDWLHVTATKALEHHHHHH”, “not failed”.
As for “MGHHHHHHSHAESHLQSSLITASQFFEIWLHFDADGSGYLEGKELQNLIQELQQARKKAGLELSPEMKTFVDQYGQRDDGKIGIVELAHVLPTEENFLLLFRCQQLKSCEEFMKTWRKYDTDHSGFIETEELKNFLKDLLEKANKTVDDTKLAEYTDLMLKLFDSNNDGKLELTEMARLLPVQENFLLKFQGIKMCGKEFNKAFELYDQDGNGYIDENELDALLKDLCEKNKQDLDINNITTYKKNIMALSDGGKLYRTDLALILCAGDN”, the protein production entry was “not failed”.
Regarding “MSSFKGIFGFNRVELKDLLISSIAIAIVVVWPRGFPTFNIGFFLHFIAALLTVGIAFIFHELAHRTVARHFGAWSEFRAWYEGLALAIFLKIILGFTFIAPGAVYIHKDYLKTKENGLISVAGPLTNIVLAVLFMILPIPAIYYSGYYVDISSYGYFVNIFLAMFNLLPIYPFDGSKVMRWNFLVWAVLFIPLIVLYFFV”, the protein production result is recorded as “failed”.
For “MPRVDHGSPQAGPPAPCVGILLAGGQGRRFAAASGGQDKLLARLADGTAVAVRAAAALREATDAVVAVVRPESAVLAALLRGQGCHVLESEQAREGMGASLAAAARFLLAGQVPDMPERADVCLVALADMPWVRRDTLSAVRAAACADGITVPVHQGRRGHPVAFGRSLWGELAALRGDVGARELLRRHRVAAVEVDDPGVAADVDTPGDLAGDRALEHHHHHH” the value was “failed”; for “MSSVSDVAFFMEVVKAGTLSGAAQELGVSTAAVSRRLANLEVRLGIRLLNRTTRRAAVTYEGELYLAEGKKILGELEELEQRLASAHSVPKGLLRVNATFGFGRQFIAPAIADFVELHPDVDVQLSLSDRPVNLIEDGFDVCIRFGDLPDARLTSRKIACNRRLLCASPGYLERFGIPASPMDLQRHRCIVIRESDETYGAWHLYSGAAQANVKVRGTVSTNDGEVAVDWALRGLGILLRSEWNVAPYLRSGRLREVLGDWRFPPADIHAVYPMKSNLSAKVRAFVSHLDKHFEPYRPRAEGKSRW”, “failed”; for “ARDPAKLKQVAGQPRLREAVIRLMRGTDVIRVKMYALNGITLFSTDASQIGEDESDDDGFRSAAAGTPASELAHNHSIDAFERTLTDRDIISTYVPVHDPAGKIEGVLEIYLDATPFVADSDQQ”, “failed”.
Regarding “MARMGGKKHLKALVAPKFWPILRKEYKWAVKPSPGPHPIERCFPLLIIVRDILGYAKTAREARKLISEGHFKVDGRVRKNYKYPVGLMDVIEIVDTGETYRVIPVPVKVLGLIEIDKEEAKYKLSRIENKTTVKGGHIQLNLHDGRNVLIKVSDPKNPVEDIYKTLGTLQISIPEQQILNYIPLDEGTLVIISGGRNVGRVGKVVSIHKGIRRHRSIVTIEDKHGNKFQTSLTYVFPIGKEEPLIKLPEGAW”, the protein production entry is recorded as “failed”.
As to “MPETSSMLESVVAYLQQAEPSSVYAVLFLSAYFENVIPPIPGDVPIALAGYLLTFSHITFVAALFWSTIGSVAGFMTVFLLSRFLGLKLYAVGECEARHKFAQSIHKLFPPSEMEVVRQKFSGHGYLAVVVNRFLFGSRAVICIVAGMLHLKIPLVLAASFVSSLLWNILLLSTGYLLGSNWDKIGQYAVLYTAPFTILFTGFIVWKVVAYLKKRKQQADGA”, the protein production entry is on record as “failed”.
Consider “QKRAWITAPVALREGEDLSKKNPIAKIHSDLAEERGLKITYKYTGKGITEPPFGIFVFNKDTGELNVTSILDREETPFFLLTGYALDARGNNVEKPLELRIKVLDINDNEPVFTQD”, for which the protein production result was “not failed”.
Regarding “MLLYMRFTENFERAKKEALMSLEIALRKGEVDEDIIPLLKKINSIENYFTTSSCSGRISVMEMPHFGDKVNAKWLGKWHREVSLYEVLEAIKKHRSGQLWFLVRSPILHVGAKTLEDAVKLVNLAVSCGFKYSNIKSISNKKLIVEIRSTERMDVLLGENGEIFVGEEYLNKIVEIANDQMRRFKEKLKRLESKINALNR”, the protein production result is “not failed”.
“MRIAGIEPESIVDGPGIRFTVFTQGCPLQCPGCHNPATWDPCGGQEVDVEEVIAAMNSSVLASGLTLSGGEASRQPRACARLARAAHEMGWDVWSWSGYTVEALMRQARRDAELADMLGQIDVLVDGPFQLVHRTLTLPWRGSSNQRVIDMPATLRGGRAVEWADRAGNLR”: the protein production result is “failed”.
Take “MSGAVPETPYHQRWLAFPDAVSSYRPLESRLAGTSRATADNRTPCTGRLGTPRVFLMATDDVSKAYSSPTFDAEALLGTVISAEDPDRVLIEPWATGVDGVILDVGSGTGRWTGHLASLGHQIEGLEPATRLVELARQTHPSVTFHHGTITDLSDSPKRWAGLLAWYSLIHMGPGELPDALVALRMAVEDGGGLLMSFFSGPSLEPMYHPVATAYRWPLPELAQALETAGFQVTSSHWDPRFPHAYLTAEASKQNLALEHHHHHH”: the protein production result was “failed”.
With “MAVNACLSPPEMMAVRPGEGVPNSKSTQGKTRLYLTKPSWIVRTQSGAKTCMKSKAKGRCVICHGSGRVDCFNCCGKGRTNCVDVEMLPRGEWPKWCKSCGGSGLSDCSRCLGTGERASFFFLWFDILIVMSSVALPAMSCRSSGEQVKEIRVCTNRTCRRQGSFQILETLTALAPPELRVTHCACLGRCGSGPNLVALPQGLILRHCATPSRAAEILFSLCGDGREASSSSAVTDALTALALTNNALSQIDAGNFSEAEALLTQALELKPYGGLHRIFKHRSVAKLGMLDYSGALEDISQALALAPNYSEPYICQGDVYVAKGQYDLAEKSYLTCLEIDPSLRRSKPFKARIAKLQQKVVELDVT”, the protein production result is reported as “failed”.
For the sequence “MTENIPKSVAAMIRQPRKISPFWLLPIVAFIIGALLFFQILKEQGETIKIRFNAGDGIVAGKTIVRYQGLQIGQVKKVYFVDDLKKVEVQAQINSEAKSVLREGTTFWLVKPSASIAGVSGLDALVSGNYITLAPGNGAITNHFVAQDEQPAATVTDGDLLVHLIASDLGSITIGASVYFRKVPVGNIANYRFTEDKQKVEIDVVINKKYAHLVKQNSRFWNISGLNANISFSGLAVNVDSLASVIQGAVSFDSPEDSTLAEQASRFDLYADLKSAQRGVDVNITVPAMTSLKVNETPVFYQNTQVGVLSFIEAMPIDNKEIERVEENAMLRGRLLIDPNYTHLFREQSTILLKEPKFNLNAEQLTNIGQLLRGVYFEVKAGNGLAKRTFTVEKESDYLLSRPDMLALTFFAPKAYGVEEGQGIYYNDVKIGELLKRTLSVDGVTLQGIIFPAYRYLVGENSKFMAIAHLDVAVGLDGLRVKAGSPSHWLQGGIRLLEGKVQGVAKKQYPLYKDIDNAQAGILSDIKQPTLTLSASELEGIDKGAVVLYRNYQIGEVLNVKPQSQKFDVEVYIEPAYRQLIGNKSRFWVESAIEAELSAKGLSIQSAPLMRTLRGAISIDNGGDKMDRTLYANRIKATANKTRISLIAKDASKLFKGMAIKYMGLTIGQIETLALQNAKKQIKLTAYIEAPYYSIIAKEGSCFTAISPEVTPSGVKNIDAVLQNYIDVEAGNGGLATEFNLIDTDTNKTTYANNFPIIVETSDARGIEVNAPVLYRGLQVGIVQRLQLSELADRIQIHLAIEKQYQHLIRNNTQFWAASGYTMDISLQGVSLNSGTMAQLLKGGIEFLTPSTRVVEPQAKPNRRFLLQRKIPAKALSWDQAIAE”, the protein production entry is “failed”.
The same measure for “MEVIREQEFVNQYHYDARNLEWEEENGTPKTNFEVTFQLANRDEAAKVTSIVAVLQFVIVRDEFVISGVISQMAHIQGRLINEPSEFSQDEVENLAAPLLEIVKRLTYEVTEIALDRPGVTLEFNS”: “not failed”; for “MTYCLGVKLKDGLVAIADTRITSGTDTTTAKKLFVHESAHGSLFLMTSGLRSVRDKAITYFKEVLKDEHVVYNQLYEAVNAFGNQLRRVAEEDRKALYAAGFAFNLHTIVGGQLKNDEEPKMFLLYPEGNWIELTQTSPFMIIGNSGYGKPILNRTVKYESTLEEVLKAGFLSFDSTRVSANDVDFPLDVVVYYNNSFKMIEHRFEKKDMEIISTTWDNQLKQALDSVPEEWMNVVFDRKNVLLEHHHHHH”: “failed”; for “MDINKLKLTPDSSIKEALKIVGQERVRLGIIVDKKDKFLGVISDSNIRKALISGKTLKDSIKDIYTKNPITIKENTSKEQLLKISAKTDIYDFPVLDEKGQILSIKSISSLLKANPNSIIIMAGGLGSRLKELTKDTPKPMLKVGKKPILESIIQRLKNQNFENFIFCVNYKKQIIEDYFQKGQKFGVKISYIKERKKLGTAGALSLIKQEFKESFIVMNADILTELDFNALLKAHKKSKALMSVCVREFEQQIPYGVITQKQGFIENIEEKPTQKFLVSAGIYVLENEILNLIAKNEYLDMPELIKLVLQKGKVNTYIINDYWIDIGRPDEFLKANEDFKLEHHHHHH”: “not failed”.
As for “MPGHVPPDLAVIEVTERRTRRSPAGYRPRMSEVVQVGAWGLLAGSALLLGAAIGFGVRVSQKVIATVMAFGAGVLISAVSYELVGEAYEQAGLAPAAIGTVIGAAAYTLGNLWLARRGARHRKRSGHHTAQAQPSEAQQGGSGLALAFGALLDGVPESAVIGVSLLDGGTVSTVTVAAVFISNVPEGLSSSAGMKRAGRGTTYVFGVWGAIAATSTLAAVLGYTVVGAFSPAVIAAVTAVAAGAILAMIADTMIPEAFEDAHLAIGLVTVSGFLVSFALSHV”, the protein production result is “failed”.
As to “MLKPTHFVVAARVTLVLGGLAVAVLALGPFQGAERIVGLNDKAAHAIAFGGLLAVSFLAFPRMRRNDLAIAALVLGAGVEVAQLFGGRSASLLDWLADAAGVLTIYGASMIETVRKMAREQGDMTFAEIAATDRRRARRRAPAVFTPLVETPQTEHAPPLSFAQRAARRFPVS”, the protein production result is “failed”.
As for “MTDTNVLANSATDNQETTHFGFETVRKDEKVHKVAQVFHSVAAKYDIMNDLMSGGIHRLWKRFTIDCSGARPGQRILDLGGGTGDLTAKFSRIVGEKGHVILADINNSMLNVGRDKLRDSGVVGNVHYVQANAEELPFPDNYFDCITISFCLRNVTDKDKALRSMFRVLKPGGRLLVLEFSKPILEPLSKLYDTYSFHILPKMGQLIANDADSYRYLAESIRMHPDQETLKGMMEEAGFEQTTYYNLTGGIVALHRGYKFLEHHHHHH”, the protein production result is on record as “not failed”.

The values are drawn from a protein production outcome set (Wang et al. 2014).
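Further: failed if final PepcDB status was selected cloned or expressed and not failed if soluble or beyond.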
